Measurements published in article PMC5472768.
Changes are numbered by the printed parent chain. Each block holds one binder with its values, some of them ahead of it.

What was measured:
[1] = target: P11475 IgM Fab fragment (Fab of the BcR IG of CLL subset no. 2 case P11475) (human); assay: ITC; dilution ITC, VP-ITC, 20 °C; 20 mM Tris pH 7.4, 100 mM glycine, 100 mM NaCl; Fab at the maximum achievable concentration (300-400 μM) injected into buffer; dimer to monomers
[2] = target: P11475 IgM Fab fragment (Fab of the BcR IG of CLL subset no. 2 case P11475) (human); assay: AUC; sedimentation velocity, absorbance detection, 72,756g, 20 °C; CLL240 and wild-type CLL183 at 0.1, 0.2 and 0.4 mg ml^-1, CLL183 mutants and the other Fabs up to 1 mg ml^-1; storage buffer (50 mM Tris pH 7, 100 mM glycine) and PBS; monomer-dimer; koff from simultaneous fit of three …
[3] = target: CLL183 Fab (Fab of the BcR IG of CLL subset no. 4 case CLL183) (human); assay: as above
[4] = target: CLL183 Fab (Fab of the BcR IG of CLL subset no. 4 case CLL183) (human); assay: AUC; sedimentation equilibrium, 0.1, 0.15 and 0.26 mg ml^-1 in storage buffer, 20 °C, four speeds, global fit with a two-state self-association model; dimer to monomers
[5] = target: CLL240 Fab (Fab of the BcR IG of CLL subset no. 4 case CLL240) (human); assay: AUC; sedimentation velocity, absorbance detection, 72,756g, 20 °C; CLL240 and wild-type CLL183 at 0.1, 0.2 and 0.4 mg ml^-1, CLL183 mutants and the other Fabs up to 1 mg ml^-1; storage buffer (50 mM Tris pH 7, 100 mM glycine) and PBS; monomer-dimer; koff from simultaneous fit of three …
[6] = target: CLL240 Fab (Fab of the BcR IG of CLL subset no. 4 case CLL240) (human); assay: AUC; sedimentation equilibrium, 0.1, 0.15 and 0.26 mg ml^-1 in storage buffer, 20 °C, four speeds, global fit with a two-state self-association model; dimer to monomers

Kd [1]: 430 µM
dH [1]: -5.4 kcal/mol
koff [2]: > 0.01 s⁻¹
B1: P11475 IgM Fab fragment (Fab of the BcR IG of CLL subset no. 2 case P11475) (Fab, V domains shown)
VH: EVQLVESGGGLVKPGGSLRLSCAASGFTFRSYSMNWVRQAPGKGLEWVSSIISSSSYIYYADSVKGRFTISRDNAKNSLYLQMNSLRAEDTALYYCARDQNAMDVWGQGTTVTVSS
VL: SYELTQPPSVSVAPGKTARITCAGNNIGSKSVHWYQQKPGQAPVLVIYYDSDRPSGIPERFSGSNSGNTATLTISRVEAGDEADYYCQVWDSGSDHPWVFGGGTKLTVL

koff [3]: 1.99e-05 s⁻¹
stoichiometry N [3]: 2
Kd [4]: 15.6 µM
B2: CLL183 Fab (Fab of the BcR IG of CLL subset no. 4 case CLL183) (Fab, V domains shown)
VH: QLQLQQWGAGLLKPSETLSLTCAVYGGSFSGYYWTWIRQSPGKGLEWIGEINHSGSTTYNPSLKSRVTISVDTSKNQFSLKLNSVTAADTAVYYCARGYGDTPTIRRYYYYGMDVWGQGTTVTVSS
VL: DVVMTQSPLSLPVTLGQPASISCRSSQSLVHSDGNTYLNWFQQRPGQSPRRLIYKVSDRDSGVPDRFSGSGSGTDFTLKISRVEAEDVGLYYCMQGTHWPPYTFGQGTKVEIK

koff [5]: 0.000263 s⁻¹
stoichiometry N [5]: 2
Kd [6]: 14 µM
B3: CLL240 Fab (Fab of the BcR IG of CLL subset no. 4 case CLL240) (Fab, V domains shown)
VH: QVQLQQWGAGLLKPSETLSLNCAVYGESFSGYYWSWIRQPPGKGLEWIGEINHSGSTNYNPSLKSRVTISVDTSKNQFSLKLSSVTAADAAIYYCARGYADTPVFRRYYYYGMDVWAKGTTVTVSS
VL: B2 VL with V2I, L90V
